According to the supplement of paper PMC12764529:
± gives the half width of the 95% confidence interval.

Legend:
[1] = folding stability dG unfold from chymotrypsin proteolysis; higher = more stable
Procedure, shortened: (§1)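 Digests were run with trypsin and chymotrypsin at 11 concentrations in threefold dilutions, plus a no-protease condition, on designed mini-proteins in a PA-tagged cDNA display construct. The mini-proteins were under 80 residues, had no cysteine, and were kept only when AlphaFold2 dimer inter-PAE was above 15. After sequencing, Bayesian fitting of the counts gave K50, from which unfolding free energy was derived against a sequence-predicted unfolded-state K50 and a shared folded-state K50, per protease or combined.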

[2] = folding stability dG unfold from trypsin proteolysis; higher = more stable
Procedure, shortened: as §1

[3] = folding stability dG unfold (combined trypsin and chymotrypsin); higher = more stable
Procedure, shortened: as §1

Sequence	folding stability dG unfold [1] [kcal/mol]	folding stability dG unfold [2] [kcal/mol]	folding stability dG unfold [3] [kcal/mol]
SPTIKASYDPETGVLTVYVKLRDPETGEPIPAEAVAAKIKELFPDAEILDIEPNPDGYVKITVKVAPDAVSA [r9_87_TrMRF]	3.79 ± 0.086	3.48 ± 0.11	3.72 ± 0.071
SAGGKTIMIMFTPDNAEEIAETIVDEFGYDVKIEKVQPMPMKDPDGKQKAPYYMIEIEIKVPDPGQPLSAGG [r13_943_TrROS]	-0.282 ± 0.22	0.945 ± 0.033	0.505 ± 0.094
SAGGSAGGSMHEDEQLPYEAAEKYTILKLKEENEKLNLPPIPIKKIEIEKDPETGLVRVKVYGSAGGSAGGS [r12_583_TrMRF]	-0.579 ± 0.6	-0.788 ± 0.42	-0.552 ± 0.39
SKIKIEEVPEGEEVEIEIPETKKTITIVKKDDYLIIKVKDKKTGEEKEIVIKVPPENIEEVLKKIEELLKSA [r9_982_TrROS_Hall]	2.34 ± 0.25	2.01 ± 0.1	2.11 ± 0.4
SAGGSAGGSAGGSMLKGKIISVDPKKGYAIIYIPGKKKLLIIKFDPDNTIVEIKEAPLSSAGGSAGGSAGGS [r4_192_TrMRF]	2.21 ± 0.14	2.82 ± 0.35	2.44 ± 0.33
MKLLKITITITVTRQFPTVPVTSTTTITLEYTTPPDDPAAIEEAKKTAEEIAKKLGATDVTVTTEEVVLESS [r1_346_JUSTAS]	4.08 ± 0.057	3.34 ± 0.11	3.84 ± 0.11
SAGGSAGGSSMPIYTVTVTYSDGTVRTYELTPEEIEAFAAEVPDAEVTELPPGKVEVTVKIPASAGGSAGGS [r20_231_JUSTAS]	2.49 ± 0.027	2.01 ± 0.096	2.33 ± 0.07
SAGGSAGGPKKIKITNIEYPNGYWRVKISLPNGKEVEYPMDSPDDALDWAEDDGIKEVEIEKYNSAGGSAGG [r6_601_TrROS]	0.358 ± 0.28	-0.429 ± 0.49	0.159 ± 0.18
SAGGSAMVETKTFEFEFEFEFENPDGEPATVTVPVTVEVPVLVPVAAPGPPGANGPEKELEELEKESAGGSA [r15_728_TrMRF]	0.641 ± 0.065	1.05 ± 0.096	0.782 ± 0.13
SAGGSAGGELEVEIVSVEFDEETKEIRIKIYVNGKLIEEKTIKIEPVKVYYKTKDGKKVSAEDLSAGGSAGG [r6_832_TrROS_Hall]	1.16 ± 0.26	1.1 ± 0.089	1 ± 0.19
SATFRLPNGKTISIMAPLPPGEMTPDQVISMARMIVRNIFPPGKKVEVKIEVEQYPNGMVHVKIPIKAESAG [r14_389_TrROS]	0.312 ± 0.28	0.0799 ± 0.31	0.406 ± 0.4
SAGGPRVEVEEVELEGDYLVVRARVEVPLDDGTYEFELTLVLPVPPPPLPLPPVDPRFPRAPDDDLVSAGGS [r8_234_TrMRF]	1.33 ± 0.073	0.584 ± 0.073	0.971 ± 0.13
SAGGSAGGSEITILIKDENGYLIKVKVELKLKKNKDGKKTLELKIEITEIYKVPSKEEAKKLLSAGGSAGGS [r12_915_TrROS_Hall]	2.08 ± 0.11	0.755 ± 0.1	1.78 ± 0.22
SAARVTVTYDPATNTVTVTVEVEVDGVTVTVTATVTFVDGRLVLTVTVEVRPPPPPPSAEQLAALRAAASAG [r14_930_TrROS_Hall]	2.69 ± 0.072	2.92 ± 0.19	2.74 ± 0.33
SAGGSAPDNKPKPVVREVEFWIMIPFKSAEQAKEIVEELMKFFGGLKVEILEVHPDGYAMIKITIYSAGGSA [r15_387_TrROS]	5.38 ± 0.072	3.68 ± 0.13	5.15 ± 0.11
SAGGMTKEKALELAEEIAREFAKKHGIEKLELKVEDVVEKEDEVIVRLKIVYPDKVYELDLVVPKDYVSAGG [r13_611_TrMRF]	4.06 ± 0.13	2.69 ± 0.11	3.7 ± 0.19
PISAEEAVDYAKHLAERLLKENPPGQEEVEIEFQSPNGWTVKIEIDPNNRKIDVEVYPRNGEPIAKAKIKVS [r1_370_TrROS]	0.378 ± 0.33	0.108 ± 0.12	0.205 ± 0.35
SAGGSAGGSAGGSMVIRNENGYLIEVKTEVVVDEETKKKYVKTEIRIYKEGEEKELPEESAGGSAGGSAGGS [r4_48_TrROS_Hall]	1.13 ± 0.1	0.369 ± 0.055	1 ± 0.22
SAGGSAGGSANAKIPDGQKVTLDFRVMIMMRMWQFDENGGKMEPRMMMIPIEVEIEIKIPPNASAGGSAGGS [r12_668_TrROS]	5.06 ± 0.14	3.46 ± 0.1	4.71 ± 0.14
SGPTSITFPDGSSASISLSPDSFTITITLPGSSATSTYDPATGTTTITLTFSSSTVTLTLDPATGTLTVGSA [r9_207_JUSTAS]	5.01 ± 0.083	3.86 ± 0.11	4.89 ± 0.11
SAGGSAGGSAGGSMELKLKVVEKTETRSATPGEDEPLPGNSSVTYEGNTLTTTTLVLVPLSAGGSAGGSAGG [r7_506_JUSTAS]	-0.736 ± 0.44	-0.728 ± 0.28	-0.72 ± 0.34

Sequence	folding stability dG unfold [1] [kcal/mol]	folding stability dG unfold [2] [kcal/mol]	folding stability dG unfold [3] [kcal/mol]
SAGGSAGGSAGKTVVIEIKGMSKEQVLNLIKELAEKYPNSKIIITNENGEKIEINVKDLKSAGGSAGGSAGG [r11_541_TrROS_Hall]	3.34 ± 0.12	1.95 ± 0.13	2.85 ± 0.22
SAGGMYVLPIDLDPASLTEEERLAVARELAEELYAAGVPGDVMLIIPREEKPLTITIDFATGEVTVVDSAGG [r19_204_JUSTAS]	1.22 ± 0.055	1.32 ± 0.045	1.31 ± 0.048
SAGGSAGGSSQEREFTLPDPDGKDIKITMHQNPDGRPRAEIENKDGEPVKEFDSPDDIEDLLKSAGGSAGGS [r20_202_TrROS]	0.168 ± 0.06	-0.273 ± 0.2	-0.0562 ± 0.22
SAGPITITYDEETGTLTITATVAPGEEVTFKLTFVDEETGVVVTEVEETVTVKEGDTVTITVKVEKLPPSAG [r5_737_TrROS_Hall]	3.69 ± 0.13	2.19 ± 0.14	3.34 ± 0.27
SAGGSAGGSAGDEPNDVVKIDFTFFFEDGYMIEMDIVIVPNGNIAIEIEIEPIKPPDEGDSAGGSAGGSAGG [r11_998_TrROS]	1.9 ± 0.13	2.06 ± 0.39	2.09 ± 0.31
SAGGSAGGSMVKTFPESEPGERVTRELILTPDSIEIVETVVKTDPATGKPVEEVLLRRSTLPLSAGGSAGGS [r12_70_JUSTAS]	-0.315 ± 0.41	-0.747 ± 0.4	-0.353 ± 0.29
SAGGSAGGSMSPSESVTLTVVVEEITPGTPKVLLPEEVKEKYPNFEVQVKVEGKPATVTITRPSAGGSAGGS [r12_900_JUSTAS]	0.444 ± 0.017	0.321 ± 0.021	0.385 ± 0.077
SAGGSAGGKKFKPGQVVLDPKTKELYVIKGEVTVKEDGSLSIKVEKVKLPKPKKLTKEQLEKLKSAGGSAGG [r6_771_TrROS_Hall]	0.613 ± 0.23	0.687 ± 0.067	0.783 ± 0.16
SAGGSAGGSAMPLTSPEEAARHIKEALERLFPSSFPDRVIDPDVVVFTRPDGRVVALVKLKASAGGSAGGSA [r18_440_TrMRF]	1.27 ± 0.073	0.877 ± 0.023	1.11 ± 0.068
SAGGSAKKPKPVKYNVVITLKDGKTITLTLPFGSLEKAKEFIEKNFPDAIVTYNPKTGNVTVYLPVSAGGSA [r15_313_TrMRF]	3.543 ± 0.03	1.87 ± 0.035	3.16 ± 0.12
SQVKIHIPFEVEYSPENGNYFFMIRVRYPGKERPIMFPYKDPEQMREWARTIAKELAKENPDNVEIEIWWSA [r9_1148_TrROS]	2.83 ± 0.095	2.42 ± 0.038	2.73 ± 0.15
SAVVLKEPGPVTTVVTTDPATGVTTTVTTDPSAGTTTVTTTDPASAAVTTTTYTTLPDGTPVPTTTTTPASA [r9_1073_JUSTAS]	0.86 ± 0.032	1.22 ± 0.031	1.05 ± 0.038
SAGGMTLTLIVPSKEEAERLAEALRALLPPGAKLEITVEEVTLKEDLPPDLPEVKEKKYLVVTIRLDSAGGS [r16_795_TrROS_Hall]	3.5 ± 0.08	3.03 ± 0.14	3.34 ± 0.1
SAGGGPDEVSEVKVSSTTTDPATGKTYTVDTTTVTTPGTVTTNTTYTVHDPVTGAVTTETTTTTTPPGSAGG [r13_206_JUSTAS]	0.481 ± 0.075	0.583 ± 0.034	0.59 ± 0.045
SAGGSAMPIELDLVIEIPIDAHPDQTVEDLVEEIAERIRRLLPPDTVVELRVHLHPELGVALADVSSAGGSA [r15_739_TrMRF]	0.117 ± 0.087	1.56 ± 0.039	0.988 ± 0.081
SARIRIMVPPDFIMVRTPKGKMRMVDDPEEIEEIIKDILPVPIEIEPLPPNSPKFQKMMEMMMREQNGPSAG [r14_235_TrROS]	0.158 ± 0.23	-0.264 ± 0.48	0.0355 ± 0.18
SAGGDWVPIEFTIMVPAEELQEGKPPTAEDIVEELFPPNFNVDIDVQQFPGNGYVYATVKIWVPPGMPSAGG [r13_862_TrROS]	2.46 ± 0.098	2.36 ± 0.19	2.4 ± 0.21
SAGGSAGGSDTPTINIPPGMGNPEQAIEQLKEIREHFPPGKKISISAPGGWKPELKEAGLITVSAGGSAGGS [r12_992_TrROS]	1.23 ± 0.08	-0.37 ± 0.11	0.513 ± 0.11
SAGGSAGGSAGMYVYKITYPTPSGGASEKLYPSSVPLEEVLKEAEERGAVEIEILPESELSAGGSAGGSAGG [r11_490_JUSTAS]	0.151 ± 0.19	0.103 ± 0.1	0.115 ± 0.23
SAGWKIKLENIEFFPNGRIRVMFEIEDPNGRPWRVQAQFDPDNPGKIKIKVENPDNGQEQEITFTIKPPSAG [r5_345_TrROS]	4.13 ± 0.1	3.15 ± 0.18	3.83 ± 0.24
SAGGSAGGSGVEITLPNKDELIEYLKKKFAEKGGKIKKIKIEPIGPNMYKALIETDPNDPYFKSAGGSAGGS [r12_647_TrMRF]	0.532 ± 0.17	0.759 ± 0.069	0.611 ± 0.13
